From US20200239573A1 (CRESCENDO BIOLOGICS, published 2020) come the findings set out here.

Test [1] deals with T1, human PD-1 expressed on cells (CHO human PD-1 cells) (human, UniProt Q15116 21-288).
T1 construct: also called CHO TREX human PD-1 cell line; CHO PD-1
As to the kind of experiment: FMAT inhibition; 200 pM PD-L2 on CHO human PD-1 cells. The protocol:
All reagents and serially diluted VH were prepared in FMAT assay buffer. […] Plates were incubated for 2 hours at room temperature then fluorescence measured in the FL2 (502 nm-537 nm) and FL5 (677-800 nm) channels on the Mirrorball plate reader (TTP) following excitation at 488 nm and 640 nm. Data was expressed as a % of the total binding control (i.e. % control) after subtraction of the background signal determined from the non-specific binding control wells.

Test [2] addresses T1, human PD-1 expressed on cells (CHO …). The experiment in a line: FMAT inhibition; 100 pM PD-L1-Fc on CHO human PD-1 cells.
Test [3] deals with T2, human PD-1 on primary human CD4+ T cells (human, UniProt Q15116 21-288). The experiment in a line: flow cytometry, PHA-stimulated human CD4+ T cells, donor 1. As for the experimental part:
(§1) Binding of monovalent single domain antibodies and multivalent binding agents to T cells was measured using flow cytometry. […] T-cells were stimulated with 2.5 μg/ml PHA for 2-4 days in RPMI media supplemented with 10% FBS, 2 mM Glutamine, 1× Pen/Strep. Cells were transferred into 96 well plates (75000 per well), blocked for 10 mins with PBS/1% BSA, then incubated with serially diluted VH in staining buffer (PBS/1% BSA) for 1 hour at 4° C. Cells were washed with staining buffer by centrifugation then incubated with 10 μg/ml biotinylated Anti His antibody for 40 mins at 4° C. Cells were washed again then stained with Streptavidin Alexa Fluor-488 (10 μg/ml) and 1:5000 diluted Live Dead near IR stain (Molecular Probes cat no. L10119) for 30 mins at 4° C. After further washing cells were fixed and fluorescence measured by flow cytometry.
In general terms: In flow cytometry, cells or beads pass a laser one at a time.

Test [4] concerns the target T2, human PD-1 on primary human CD4+ T cells. The experiment in a line: flow cytometry, PHA-stimulated human CD4+ T cells, donor 2. The protocol: as §1
Test [5] shares this target. The experiment in a line: flow cytometry, PHA-stimulated human CD4+ T cells, donor 3. The protocol:
as §1

For test [6] the target is unchanged. The experiment in a line: flow cytometry, PHA-stimulated human CD4+ T cells, donor 4. As for the experimental part:
as §1

Test [7] deals with T3, recombinant human PD-1 Fc chimera (human, UniProt Q15116 25-167).
T3 construct: Bought protein; also called human PD-1-huFc; huPD-1-Fc; not shown: human Fc
T3 sequence (Q15116 25-167 limits assumed, change not shown): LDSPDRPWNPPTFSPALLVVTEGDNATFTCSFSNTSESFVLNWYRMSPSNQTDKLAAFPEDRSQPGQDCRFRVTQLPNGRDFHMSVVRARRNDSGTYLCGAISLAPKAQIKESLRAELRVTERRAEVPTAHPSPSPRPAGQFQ
The experiment in a line: SPR Biacore T200, PD-1-huFc amine-coupled, single cycle kinetics. The protocol: Binding kinetics of certain VH single domain antibodies binding to human PD-1-huFc were measured by surface plasmon resonance (SPR) technology using Biacore T200 instrument (GE Healthcare). Recombinant human PD-1-huFc was immobilized by standard amine coupling to CM5 sensorschip (GE Healthcare) using in range of 0.1-0.01 mg/ml solution of antigen in 10 mM sodium acetate at pH 5.5. For the reference flow cell, a blank immobilisation was carried out. Single cycle kinetics assays were used to study the interaction, a five point, three-fold dilution series of each Humabody® was made with a top concentration of 30 nM. The binding kinetics were followed by flowing the Humabody® over the chip surface in HBS EP+ buffer at a flow rate of 30 μl/min. The contact time for each of the association steps was 180 seconds and the dissociation step was varied between 1200-3600 seconds. The data was fitted to a 1:1 binding model after double reference subtraction using the Biacore T200 Evaluation software.
(In general: In SPR one partner is held on a chip, and binding of the other changes the refractive index at the surface.)

The target of test [8] is T1, human PD-1 expressed on cells (CHO …). As to the kind of experiment: FMAT 1.57 epitope competition on CHO human PD-1 cells; competitor 1.57-Strep; sample kept 1 day in human serum.
For test [9] the target is unchanged. The experiment in a line: FMAT 1.57 epitope competition on CHO human PD-1 cells; competitor 1.57-Strep; sample kept 4 days in human serum.
Test [10] has the same target. As to the kind of experiment: FMAT 1.57 epitope competition on CHO human PD-1 cells; competitor 1.57-Strep; sample kept 4 days in mouse serum. The protocol:
(§2) For the epitope competition assay reagents were prepared in FMAT assay buffer. […] Plates were incubated for a minimum of 1.5 hours at room temperature then fluorescence measured in the FL2 (502 nm-537 nm) and FL5 (677-800 nm) channels on the Mirrorball plate reader (TTP) following excitation at 488 nm and 640 nm. Data was expressed as a % of the total binding control (i.e. % control) after subtraction of the background signal determined from the non-specific binding control wells.
(§3) Serum stability of VH and multivalent VH constructs was assessed by measurement of their activity following incubation for 0, 1, 4 or 7 days in mouse serum (Sigma M5905).

Test [11] has the same target. The experiment in a line: FMAT 1.57 epitope competition on CHO human PD-1 cells; competitor 1.57-Strep; sample kept 7 days in human serum.
The target is the same in test [12]. As to the kind of experiment: FMAT 1.57 epitope competition on CHO human PD-1 cells; competitor 1.57-Strep; sample kept 7 days in mouse serum. The protocol:
as §2, §3

For test [13] the target is unchanged. The experiment in a line: FMAT 1.57 epitope competition on CHO human PD-1 cells; competitor 1.57-Strep; sample kept 0 days in human serum; Day 0, Human column.

T1 sequence (Q15116 21-288): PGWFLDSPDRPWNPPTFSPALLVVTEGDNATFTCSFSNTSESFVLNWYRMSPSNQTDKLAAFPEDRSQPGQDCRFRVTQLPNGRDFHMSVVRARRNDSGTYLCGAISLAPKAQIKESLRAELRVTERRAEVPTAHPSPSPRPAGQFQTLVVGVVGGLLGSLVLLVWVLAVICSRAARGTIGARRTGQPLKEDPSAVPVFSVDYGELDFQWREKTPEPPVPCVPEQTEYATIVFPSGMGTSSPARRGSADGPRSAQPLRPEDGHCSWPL
T2 sequence (Q15116 21-288): as above

B1: Humabody® 1.92 (VHH)
VHH: EVQLVESGGGLVKPGGSLRLSCAASGFTFSDESMTWMRQAPGKGLEWVSYISSGGGVKFYADSVKGRFTISRDNAKNSLYLQMNSLRAEDTAVYYCAREAPLRLGESPHDAFDISGQGTMVTVSS
notes: human VH single domain antibody
With B1, the half-maximal inhibitory concentration (IC50) in test [1] came to 4 nM; in [2], 2.8 nM; in test [8], 4.9 nM; in test [9], 6.1 nM; in test [10] it was 4.7 nM; in test [11] it was 5.4 nM. The concentration for half-maximal inhibition (IC50) was found to be 5.2 nM in test [12] and 5.7 nM in test [13]. For the same molecule, the EC50 in test [3] is 0.8 nM; in [4], 1.1 nM; in test [5] it was 1.2 nM; in [6], 0.9 nM. Also, in test [7], the Kd was 0.059 nM. Further, the koff in [7] turned out to be 3.67e-05 s⁻¹. In addition, in [7], the kon is 620000 M⁻¹ s⁻¹.

Broadly, the IC50 is the concentration at which inhibition is half-maximal. A lower IC50 goes with higher potency. In general, EC50 refers to the concentration that produces a half-maximal response. A higher EC50 goes with a less potent agent. A word on the Kd: it is the constant that tells how readily two partners part at equilibrium. A word on the koff: it is the first-order rate constant of dissociation. Broadly, the kon is the second-order rate constant of association.
